{
  "source": "patent US20130071405A1",
  "about": "(Eli Lilly, published 2013)",
  "binders": {"B1": {"name": "engineered PCSK9 antibody of Example 1 (antibody, human IgG4 S228P, kappa, F234A L235A, V domains shown)", "VH": "EVQLVESGGGLVKPGGSLRLSCAASGFPFSKLGMVWVRQAPGKGLEWVSTISSGGGYTYYPDSVKGRFTISRDNAKNSLYLQMNSLRAEDTAVYYCAREGISFQGGTYTYVMDYWGQGTLVTVSS", "VL": "DIVMTQSPLSLPVTPGEPASISCRSSKSLLHRNGITYSYWYLQKPGQSPQLLIYQLSNLASGVPDRFSGSGSGTDFTLKISRVEAEDVGVYYCYQNLELPLTFGQGTKVEIKR", "notes": "the controls used are IgG4; also called test PCSK9 antibody"}},
  "key": {"[1]": {"molecular_target": "T1, Recombinant full length PCSK9, C-terminal HIS-tagged (HEK 293 stable cell line) (human, UniProt Q8NBP7 31-692)", "T1 construct": "also called C-terminal HIS-tagged recombinant human PCSK9; not shown: C-terminal HIS tag", "T1 sequence (Q8NBP7 31-692 limits assumed)": "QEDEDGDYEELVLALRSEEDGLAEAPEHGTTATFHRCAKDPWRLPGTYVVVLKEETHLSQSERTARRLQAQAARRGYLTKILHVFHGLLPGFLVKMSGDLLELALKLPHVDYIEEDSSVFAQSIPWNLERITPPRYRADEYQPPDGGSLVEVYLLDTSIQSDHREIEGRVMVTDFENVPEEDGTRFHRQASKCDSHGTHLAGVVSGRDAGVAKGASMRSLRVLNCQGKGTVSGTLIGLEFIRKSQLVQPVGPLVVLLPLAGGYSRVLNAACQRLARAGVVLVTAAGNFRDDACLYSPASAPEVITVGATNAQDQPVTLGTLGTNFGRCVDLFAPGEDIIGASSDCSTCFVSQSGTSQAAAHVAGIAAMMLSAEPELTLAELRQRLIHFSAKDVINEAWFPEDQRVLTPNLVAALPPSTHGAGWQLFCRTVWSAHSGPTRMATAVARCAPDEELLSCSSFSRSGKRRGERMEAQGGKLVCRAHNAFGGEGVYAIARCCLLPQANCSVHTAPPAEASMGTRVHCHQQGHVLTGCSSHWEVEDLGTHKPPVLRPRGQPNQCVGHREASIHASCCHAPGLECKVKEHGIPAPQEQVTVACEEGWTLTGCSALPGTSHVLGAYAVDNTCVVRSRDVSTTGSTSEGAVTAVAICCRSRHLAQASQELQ", "test": "AlphaLISA, inhibition of PCSK9 (1 nM) binding to FLAG-tagged LDLR extracellular domain (1 nM)"}, "[2]": {"molecular_target": "T2, hPCSK9 160-181 synthetic peptide (human)", "T2 construct": "Numbered on complete human PCSK9 including the twenty-eight amino acid signal peptide", "T2 peptide": "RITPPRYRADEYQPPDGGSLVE", "test": "binding kinetics to synthetic peptide, reference intact human PCSK9"}, "Human PCSK9": {"molecular_target": "Human PCSK9 (human, UniProt Q8NBP7 31-692)", "sequence (Q8NBP7 31-692 limits assumed)": "as the sequence (Q8NBP7 31-692 limits assumed) above", "test": "SPR, 37 C, physiological buffer, n=6, Avg ± SD"}, "[3]": {"molecular_target": "T3, hPCSK9 163-174 synthetic peptide (human)", "T3 peptide": "PPRYRADEYQPP", "test": "binding kinetics to synthetic peptide (method not named in Example 3)"}, "[4]": {"molecular_target": "T2, hPCSK9 160-181 synthetic peptide", "test": "binding kinetics to synthetic peptide (method not named in Example 3)"}, "[5]": {"molecular_target": "T4, hPCSK9 166-181 synthetic peptide (human)", "T4 peptide": "YRADEYQPPDGGSLVE", "test": "binding kinetics to synthetic peptide (method not named in Example 3)"}, "mature hPCSK9 C-term His": {"molecular_target": "T5, mature hPCSK9 C-term His (human, UniProt Q8NBP7 29-692)", "T5 construct": "also called intact human PCSK9; intact PCSK9", "T5 sequence (Q8NBP7 other isoform, or with tags, fused parts or gaps limits assumed)": "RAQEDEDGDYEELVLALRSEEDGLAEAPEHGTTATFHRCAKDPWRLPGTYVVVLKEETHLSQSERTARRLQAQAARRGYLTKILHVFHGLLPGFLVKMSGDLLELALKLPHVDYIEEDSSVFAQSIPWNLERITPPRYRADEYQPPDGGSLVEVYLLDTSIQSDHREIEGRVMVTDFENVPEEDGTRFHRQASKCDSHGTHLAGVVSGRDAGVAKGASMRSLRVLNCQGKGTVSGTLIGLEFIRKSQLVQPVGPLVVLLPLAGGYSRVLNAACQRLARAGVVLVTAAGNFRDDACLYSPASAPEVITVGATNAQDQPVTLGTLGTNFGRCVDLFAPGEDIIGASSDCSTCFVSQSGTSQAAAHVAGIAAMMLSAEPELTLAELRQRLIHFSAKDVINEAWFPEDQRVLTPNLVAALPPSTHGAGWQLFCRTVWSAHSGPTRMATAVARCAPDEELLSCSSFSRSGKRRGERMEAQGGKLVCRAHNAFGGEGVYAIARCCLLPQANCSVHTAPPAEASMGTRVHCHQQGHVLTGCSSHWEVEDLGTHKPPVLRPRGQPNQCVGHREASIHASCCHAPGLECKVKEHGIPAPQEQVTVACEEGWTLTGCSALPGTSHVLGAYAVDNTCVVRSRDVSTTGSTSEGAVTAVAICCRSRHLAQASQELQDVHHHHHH", "test": "binding kinetics (method not named in Example 3)"}, "Mouse PCSK9": {"molecular_target": "Mouse PCSK9 (mouse, UniProt Q80W65 35-694, limits assumed)", "sequence (Q80W65 35-694 limits assumed)": "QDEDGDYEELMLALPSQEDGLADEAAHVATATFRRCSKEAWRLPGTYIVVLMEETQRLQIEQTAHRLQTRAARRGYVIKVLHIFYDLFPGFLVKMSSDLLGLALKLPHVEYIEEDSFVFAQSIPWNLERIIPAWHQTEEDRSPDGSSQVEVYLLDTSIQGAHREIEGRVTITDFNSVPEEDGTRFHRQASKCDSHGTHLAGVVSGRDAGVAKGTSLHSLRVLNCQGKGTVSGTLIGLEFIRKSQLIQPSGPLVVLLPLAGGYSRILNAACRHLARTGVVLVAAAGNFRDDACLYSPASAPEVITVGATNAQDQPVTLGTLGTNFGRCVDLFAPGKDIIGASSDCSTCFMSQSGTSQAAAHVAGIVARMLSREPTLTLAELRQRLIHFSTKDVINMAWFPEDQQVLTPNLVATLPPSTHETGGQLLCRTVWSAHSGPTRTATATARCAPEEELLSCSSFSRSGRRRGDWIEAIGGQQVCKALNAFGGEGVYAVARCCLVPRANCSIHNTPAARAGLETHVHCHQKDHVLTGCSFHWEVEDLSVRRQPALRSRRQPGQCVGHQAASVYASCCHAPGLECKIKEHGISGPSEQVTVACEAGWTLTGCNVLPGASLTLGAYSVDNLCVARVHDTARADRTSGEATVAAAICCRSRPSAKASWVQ", "test": "SPR, 25 C, n=3"}, "Rat PCSK9": {"molecular_target": "Rat PCSK9 (rat, UniProt P59996 31-691, limits assumed)", "sequence (P59996 31-691 limits assumed)": "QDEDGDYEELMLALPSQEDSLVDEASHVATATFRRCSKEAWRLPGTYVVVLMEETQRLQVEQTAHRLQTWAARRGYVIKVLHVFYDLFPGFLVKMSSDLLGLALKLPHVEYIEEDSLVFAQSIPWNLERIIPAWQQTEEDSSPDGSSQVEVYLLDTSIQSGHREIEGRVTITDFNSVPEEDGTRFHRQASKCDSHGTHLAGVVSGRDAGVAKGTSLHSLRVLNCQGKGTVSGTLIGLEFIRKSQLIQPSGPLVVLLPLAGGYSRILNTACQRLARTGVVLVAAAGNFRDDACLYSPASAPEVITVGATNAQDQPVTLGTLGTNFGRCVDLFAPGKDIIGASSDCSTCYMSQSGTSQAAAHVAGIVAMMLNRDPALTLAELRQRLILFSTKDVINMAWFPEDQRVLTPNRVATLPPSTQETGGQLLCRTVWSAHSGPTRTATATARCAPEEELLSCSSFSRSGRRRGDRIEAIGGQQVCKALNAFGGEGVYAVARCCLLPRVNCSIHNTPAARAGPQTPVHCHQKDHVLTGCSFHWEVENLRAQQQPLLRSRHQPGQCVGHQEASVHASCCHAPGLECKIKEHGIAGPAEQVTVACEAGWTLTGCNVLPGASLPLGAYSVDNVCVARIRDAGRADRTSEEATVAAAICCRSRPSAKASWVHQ", "test": "SPR, 25 C, n=2"}, "[6]": {"molecular_target": "Cyno PCSK9 (cynomolgus monkey)", "test": "SPR, 37 C, physiological buffer, n=4, Avg ± SD"}},
  "data": [
    {"binder": "B1", "values": [
      {"measurement": "IC50", "setting": "[1]", "result": "~0.09", "unit": "nM"},
      {"measurement": "koff fold difference against intact PCSK9", "setting": "[2]", "result": "≤ 2", "unit": "fold"},
      {"measurement": "Kd", "setting": "Human PCSK9", "result": 11, "unit": "nM"},
      {"measurement": "koff", "setting": "Human PCSK9", "result": 0.0012, "unit": "s⁻¹"},
      {"measurement": "kon", "setting": "Human PCSK9", "result": 120000, "unit": "M⁻¹ s⁻¹"},
      {"measurement": "Kd", "setting": "[3]", "result": 3, "unit": "nM"},
      {"measurement": "koff", "setting": "[3]", "result": 0.00831, "unit": "s⁻¹"},
      {"measurement": "kon", "setting": "[3]", "result": "2.75e+06", "unit": "M⁻¹ s⁻¹"},
      {"measurement": "Kd", "setting": "[4]", "result": 0.17, "unit": "nM"},
      {"measurement": "koff", "setting": "[4]", "result": 0.000242, "unit": "s⁻¹"},
      {"measurement": "kon", "setting": "[4]", "result": "1.45e+06", "unit": "M⁻¹ s⁻¹"},
      {"measurement": "Kd", "setting": "[5]", "result": 34, "unit": "nM"},
      {"measurement": "koff", "setting": "[5]", "result": 0.156, "unit": "s⁻¹"},
      {"measurement": "kon", "setting": "[5]", "result": "4.58e+06", "unit": "M⁻¹ s⁻¹"},
      {"measurement": "Kd", "setting": "mature hPCSK9 C-term His", "result": 1.8, "unit": "nM"},
      {"measurement": "koff", "setting": "mature hPCSK9 C-term His", "result": 0.00015, "unit": "s⁻¹"},
      {"measurement": "kon", "setting": "mature hPCSK9 C-term His", "result": 86700, "unit": "M⁻¹ s⁻¹"},
      {"measurement": "binding result", "setting": "Mouse PCSK9", "result": "no binding"},
      {"measurement": "binding result", "setting": "Rat PCSK9", "result": "no binding"},
      {"measurement": "Kd", "setting": "[6]", "result": 25, "unit": "nM"},
      {"measurement": "koff", "setting": "[6]", "result": 0.0025, "unit": "s⁻¹"},
      {"measurement": "kon", "setting": "[6]", "result": 110000, "unit": "M⁻¹ s⁻¹"}
    ]}
  ]
}
